# From patent US5972599, “High affinity nucleic acid ligands of cytokines” (NeXstar Pharmaceuticals, Inc.)
# What was measured:
# IFN-gamma [1] = target: T1, IFN-gamma (Homo sapiens, UniProt P01579 P01579:24-161); experiment: filter; biphasic 2.7/103 nM; conditions: tags: Genzyme (Cambridge MA); Upstate Biotechnology for early SELEX rounds; chain copies: 2 inferred
# Protocol: The determination of equilibrium dissociation constants (Kds) for RNA pools was made subsequent to rounds 5, 8, 12, and 17 to monitor the progress of each SELEX. The Kds of RNA pools for mouse IFN-gamma (Genzyme Inc., Cambridge Mass.) were also determined after rounds 8 and 17. Kds were determined for individual ligands after cloning and sequencing of RNA pools and truncations (described below). Nitrocellulose filter binding was used to determine Kds as follows: filter discs were placed into a vacuum manifold and wetted with 5 ml of mPBS buffer. ^32P-labeled-RNA was incubated with serial dilutions of IFN-gamma in binding buffer for 5–10 min at 37° C. to allow binding to occur. […] The filter discs were dried and counted in a liquid scintillation counter (Beckmann Instruments, Palo Alto Calif.). Equilibrium dissociation constants were determined by least square fitting of the data points using the Kaleidagraph™ graphics program (Synergy Software, Reading Pa.). […] Biphasic binding constants were calculated according to standard procedures. Kds were determined by least square fitting of the data points using the Kaleidagraph™ graphics program.
# The Kds of individual RNAs within each group were determined by nitrocellulose filter binding as described above. The Kds were determined using either a monophasic or biphasic least squares fit of the data.
# IFN-gamma [2] = target: T1, IFN-gamma; experiment: competition; 30 pM 125I-IFN-gamma, A549 cells; conditions: tags: Genzyme (Cambridge MA); Upstate Biotechnology for early SELEX rounds; chain copies: 2 inferred
# Protocol: The cells were washed 3 times with PBS. […] Incubations were carried out at 4° C. with shaking for 2 hrs. The cells were washed 2 times with cold PBS to remove free IFN and detached with 0.5% SDS.
# IL-10 = IL-10 (Homo sapiens, UniProt P22301 P22301:19-178); experiment: filter; TEM buffer, 37 C; conditions: tags: Bachem or R & D Systems; chain copies: 2 inferred
# Sequence of IL-10 (P22301 19-178, one chain of several): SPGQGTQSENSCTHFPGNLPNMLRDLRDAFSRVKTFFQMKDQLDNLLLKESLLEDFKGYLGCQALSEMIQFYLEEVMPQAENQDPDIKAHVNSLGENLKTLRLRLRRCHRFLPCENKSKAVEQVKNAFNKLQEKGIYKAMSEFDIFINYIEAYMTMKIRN
# Protocol: Internally-labeled RNA transcripts were prepared by including [γ-^32P]ATP in T7 RNA polymerase transcription reactions. Full-length transcripts were purified on 8% denaturing polyacrylamide gels to ensure size homogeneity. Gel-purified RNA was diluted to a concentration of ~5 nM in TEM buffer, heated to 80° C. then chilled on ice to facilitate secondary structure formation. RNA concentrations were kept lower than 100 pM in binding reactions. Briefly, equal amounts of RNA were incubated with varying amounts of IL-10 in 50 µL of TEM buffer for 10 min at 37° C. RNA-protein mixtures were passed through pre-wet nitrocellulose filters (0.2µ) and the filters were immediately washed with 5 mL of binding buffer. Radioactivity retained on filters was determined by liquid scintillation counting. The quantities of RNA bound to filters in the absence of protein was determined and used for background correction. The percentage of input RNA retained on each filter was plotted against the corresponding log protein concentration. The nonlinear least square method to obtain the dissociation constant (K_d).
# IL-4 = IL-4 (Homo sapiens, UniProt P05112 P05112:25-153); experiment: filter; specificity control; conditions: tags: R&D Systems
# Sequence of IL-4 (P05112 25-153, one chain of several): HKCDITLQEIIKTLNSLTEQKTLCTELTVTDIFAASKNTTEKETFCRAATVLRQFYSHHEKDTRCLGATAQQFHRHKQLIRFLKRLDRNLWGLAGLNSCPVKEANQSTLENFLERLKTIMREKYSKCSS
# IFN-gamma [3] = target: T1, IFN-gamma; experiment: filter; specificity control; conditions: tags: Genzyme (Cambridge MA); Upstate Biotechnology for early SELEX rounds; chain copies: 2 inferred
# IFN-gamma [4] = target: T1, IFN-gamma; experiment: filter; printed as '12 4 nM', decimal uncertain; conditions: tags: Genzyme (Cambridge MA); Upstate Biotechnology for early SELEX rounds; chain copies: 2 inferred
# Protocol: The determination of equilibrium dissociation constants (Kds) for RNA pools was made subsequent to rounds 5, 8, 12, and 17 to monitor the progress of each SELEX. The Kds of RNA pools for mouse IFN-gamma (Genzyme Inc., Cambridge Mass.) were also determined after rounds 8 and 17. Kds were determined for individual ligands after cloning and sequencing of RNA pools and truncations (described below). Nitrocellulose filter binding was used to determine Kds as follows: filter discs were placed into a vacuum manifold and wetted with 5 ml of mPBS buffer. ^32P-labeled-RNA was incubated with serial dilutions of IFN-gamma in binding buffer for 5–10 min at 37° C. to allow binding to occur. Binding mixes were centrifuged as described above to remove aggregates, aspirated through the filter discs, and then immediately washed with 5 ml mPBS buffer. The filter discs were dried and counted in a liquid scintillation counter (Beckmann Instruments, Palo Alto Calif.). Equilibrium dissociation constants were determined by least square fitting of the data points using the Kaleidagraph™ graphics program (Synergy Software, Reading Pa.). […] Biphasic binding constants were calculated according to standard procedures. Kds were determined by least square fitting of the data points using the Kaleidagraph™ graphics program.
# TNF-alpha = TNF-alpha (Homo sapiens, UniProt P01375 P01375:77-233); experiment: FP; no value shown, Kd above 1 uM per footnote; filter binding, DPBS; conditions: tags: Genzyme or R&D Systems; chain copies: 3
# Sequence of TNF-alpha (P01375 77-233, one chain of several): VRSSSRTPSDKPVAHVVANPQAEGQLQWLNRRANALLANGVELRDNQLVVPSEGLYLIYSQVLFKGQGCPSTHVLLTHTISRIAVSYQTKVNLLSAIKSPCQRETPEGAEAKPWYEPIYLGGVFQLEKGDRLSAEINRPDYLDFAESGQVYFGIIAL
# T1 sequence (P01579 24-161, one chain of several): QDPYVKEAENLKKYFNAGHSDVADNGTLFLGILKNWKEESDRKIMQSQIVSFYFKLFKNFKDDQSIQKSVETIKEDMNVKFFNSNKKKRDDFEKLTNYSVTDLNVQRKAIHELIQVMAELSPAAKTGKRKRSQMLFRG
binder,measurement,setting,value
"IFN-gamma 2'NH2-30 (ssRNA, 2'-NH2 all C and U) RNA: GGGAGGACGAUGCGGCAGGUAAUUACAUGAAGGUGGGUUAGGUACUUUCAGGGUCAGACGACUCGCCCGA",Kd,IFN-gamma [1],2.7 nM
same,IC50,IFN-gamma [2],10 nM
"IL-10 ligand 43 (ssRNA, 2'-F all C and U) RNA: GGGAGACAAGAAUAAACGCUCAAACAUCGUAUAACUCUAAGGGCCUGGAUAUACGAUGAAUUCGACAGGAGGCUCACAACAGGC",Kd,IL-10,213 nM
same,binding result,IL-4,no binding
same,binding result,IFN-gamma [3],no binding
"IFN-gamma 2'NH2-17 truncate (ssRNA, 2'-NH2 all C and U) RNA: GGGAGGACGAUGCGGUGGUAGCGCGAUAUAGCGCUGGUAGGGUUGCCGGUG",Kd,IFN-gamma [4],12.4 nM
TNF 12A (ssRNA) RNA: GGGAGCUCAGAAUAAACGCUCAACUUCUUGGCCCCGUCUCAAUGUCCGUACUUCUUCGACAUGAGGCCCGGAUCCGGC,Kd,TNF-alpha,> 1000 nM
